Laboratory results published in the Immune Epitope Database (IEDB).

Experiments:
HLA-A*02:01 [1] = assay: IEDB peptide-MHC binding, purified MHC/competitive/fluorescence; ≥ and ≤ were set here for values at or beyond the usual limits of such assays
HLA-A*30:01 = assay: IEDB peptide-MHC binding, purified MHC/competitive/radioactivity; filed as Kd, often an IC50 or EC50 that approximates it; ≥ and ≤ were set here for values at or beyond the usual limits of such assays
HLA-A*01:01 [2] = assay: as above
HLA-A*26:01 = assay: as above; settings: source organism: Dengue virus 1 Brazil/97-11/1997
HLA-B*08:01 = assay: as above
HLA-B*40:01 = assay: IEDB peptide-MHC binding, purified MHC/direct/fluorescence; filed as Kd, often an IC50 or EC50 that approximates it; ≥ and ≤ were set here for values at or beyond the usual limits of such assays
HLA-A*03:01 [3] = assay: as above
HLA-A*31:01 = assay: as above
HLA-A*30:02 = assay: IEDB peptide-MHC binding, purified MHC/competitive/radioactivity; filed as Kd, often an IC50 or EC50 that approximates it; ≥ and ≤ were set here for values at or beyond the usual limits of such assays; settings: source organism: Dengue virus 4 Philippines/H241/1956
HLA-A*02:01 [4] = assay: IEDB peptide-MHC binding, purified MHC/direct/fluorescence; filed as Kd, often an IC50 or EC50 that approximates it; ≥ and ≤ were set here for values at or beyond the usual limits of such assays
HLA-B*07:02 = assay: as above; settings: source organism: Escherichia coli O157:H7
HLA-B*15:01 = assay: as above
HLA-B*27:05 = assay: as above; settings: source organism: Escherichia coli O157:H7
HLA-B*58:01 = assay: as above
HLA-B*46:01 = assay: as above; settings: source organism: West Nile virus
HLA-A*11:01 [5] = assay: as above
HLA-A*02:02 = assay: IEDB peptide-MHC binding, purified MHC/competitive/radioactivity; filed as Kd, often an IC50 or EC50 that approximates it; ≥ and ≤ were set here for values at or beyond the usual limits of such assays
HLA-A*02:03 = assay: as above
HLA-A*02:06 = assay: as above
HLA-A*03:01 [6] = assay: as above; settings: source organism: Dengue virus 4 Philippines/H241/1956
HLA-A*11:01 [7] = assay: as above; settings: source organism: Dengue virus 4 Philippines/H241/1956
HLA-B*44:02 = assay: as above; settings: source organism: Dengue virus 4 Philippines/H241/1956
HLA-A*01:01 [8] = assay: IEDB peptide-MHC binding, purified MHC/direct/fluorescence; filed as Kd, often an IC50 or EC50 that approximates it; ≥ and ≤ were set here for values at or beyond the usual limits of such assays; settings: source organism: Yersinia enterocolitica
HLA-A*69:01 = assay: as above; settings: source organism: Yersinia enterocolitica
[9] = source organism: Mycobacterium tuberculosis
[10] = source organism: Dengue virus 1 Brazil/97-11/1997
[11] = source organism: Vaccinia virus WR
[12] = source organism: Dengue virus 4 Philippines/H241/1956
[13] = source organism: Zaire ebolavirus
[14] = source organism: Salmonella enterica
[15] = source organism: Escherichia coli O157:H7
[16] = source organism: Vaccinia virus Copenhagen
[17] = source organism: Francisella tularensis subsp. holarctica LVS
[18] = source organism: Burkholderia pseudomallei
[19] = source organism: Dengue virus 4 Dominica/814669/1981
[20] = source organism: SARS coronavirus Tor2
[21] = source organism: Yersinia enterocolitica

For GLFLTTEAV, the IC50 (HLA-A*02:01 [1]; [9]) was 50 nM.
Sequence ALVCGLRQL has an IC50 (HLA-A*02:01 [1]; source organism: Sudan ebolavirus) of 22800 nM.
SFKKNGAIK was tested, and the Kd (HLA-A*30:01; [10]) was 357 nM.
CIAVGMVTLY showed a Kd (HLA-A*01:01 [2]; [10]) of 1380 nM and a Kd (HLA-A*26:01) of 483 nM.
In the case of SLKIMIQSM, the Kd (HLA-B*08:01; [11]) is reported as 2.48 nM.
With ATKNGNIFV the Kd (HLA-A*30:01; [11]) was 3.85 nM.
VKVLRPTPKG showed a Kd (HLA-A*30:01; [12]) of 9230 nM.
In the case of ALSSLAKHG, the IC50 (HLA-A*02:01 [1]; [13]) is reported as at least 91800 nM.
EEITPHCAL gave a Kd (HLA-B*40:01; source organism: Mammarenavirus lassaense) of 26.6 nM.
RSWQPPQPR showed a Kd (HLA-A*03:01 [3]; [14]) of at least 20000 nM and a Kd (HLA-A*31:01; [14]) of 35 nM.
Work on FCIKILNPY yielded a Kd (HLA-A*26:01) of 7700 nM.
In the case of QAERTGEPDY, the Kd (HLA-A*30:01; [12]) is reported as 6210 nM.
With HTIENTTAN the Kd (HLA-A*26:01) was 2290 nM.
With RTPQDNQLIY the Kd (HLA-A*01:01 [2]; [12]) was 919 nM and the Kd (HLA-A*30:02) was 198 nM.
GTTATITPQA showed a Kd (HLA-A*30:01; source organism: Dengue virus 1 Nauru/West Pac/1974) of 839 nM.
ETWVETWAF showed a Kd (HLA-A*02:01 [4]; [15]) of at least 20000 nM, a Kd (HLA-A*03:01 [3]; [15]) of at least 20000 nM and a Kd (HLA-B*07:02) of at least 20000 nM. For the same sequence, the Kd (HLA-B*15:01; [15]) was 1170 nM, the Kd (HLA-B*27:05) was at least 20000 nM and the Kd (HLA-B*58:01; [15]) was 3000 nM.
For LLVAPAYSF, the Kd (HLA-B*46:01) was at least 20000 nM.
Sequence LFLRRRCPL has a Kd (HLA-B*08:01; [16]) of 0.125 nM.
ELDLHFQRI was tested, and the Kd (HLA-B*08:01; [11]) was 3260 nM.
YKLFLESGA showed an IC50 (HLA-A*02:01 [1]; [13]) of at least 209000 nM.
With GVYTGSIGY the Kd (HLA-A*03:01 [3]; [17]) was 2.6 nM and the Kd (HLA-A*11:01 [5]; [17]) was 1.6 nM.
With FYRKKFRPL the Kd (HLA-B*08:01; [11]) was 0.0879 nM.
LAKRFSRGLL was tested, and the Kd (HLA-B*08:01; source organism: Dengue virus 3 Singapore/8120/1995) was 1480 nM.
SRRYRCSFA was tested, and the Kd (HLA-B*08:01; [11]) was 52.3 nM.
Work on DTLVKSGLT yielded a Kd (HLA-A*02:02; [11]) of 1950 nM, a Kd (HLA-A*02:03; [11]) of 2880 nM and a Kd (HLA-A*02:06; [11]) of at least 52700 nM.
YLFIRKNVI gave a Kd (HLA-B*08:01; [16]) of 0.706 nM.
For MTLMKGASK, the Kd (HLA-A*03:01 [6]) was 18 nM, the Kd (HLA-A*11:01 [7]) was 143 nM and the Kd (HLA-A*30:01; [12]) was 1520 nM.
Work on AQAIGRVER yielded a Kd (HLA-A*03:01 [3]; [18]) of at least 20000 nM and a Kd (HLA-A*31:01; [18]) of 37.3 nM.
For MSLRSTIIK, the Kd (HLA-A*30:01; [11]) was 37.2 nM.
With VLALYSPPLI the Kd (HLA-A*02:02; [11]) was 15.7 nM, the Kd (HLA-A*02:03; [11]) was 101 nM and the Kd (HLA-A*02:06; [11]) was 868 nM.
With VTAKWLWGFL the Kd (HLA-A*01:01 [2]; [10]) was 17700 nM.
TTLTASLVML gave a Kd (HLA-A*01:01 [2]; [19]) of 1050 nM.
Sequence FLWLLWPVTL has a Kd (HLA-A*02:02; [20]) of 2.67 nM, a Kd (HLA-A*02:03; [20]) of 14 nM and a Kd (HLA-A*02:06; [20]) of 28.4 nM.
With EVRYIDITNI the Kd (HLA-A*02:02; [11]) was 12900 nM, the Kd (HLA-A*02:03; [11]) was 5810 nM and the Kd (HLA-A*02:06; [11]) was 4340 nM.
Sequence RLKMDKLEL has a Kd (HLA-B*08:01; source organism: Dengue virus 3 Martinique/1243/1999) of 556 nM.
In the case of GLFPFHFTL, the Kd (HLA-A*02:01 [4]; [9]) is reported as 0.4 nM.
TEQMAPHHKI showed a Kd (HLA-B*44:02) of 41.7 nM.
Work on VMKRYSAPSE yielded a Kd (HLA-A*30:01; [19]) of 6330 nM.
Work on AIKRKLRTL yielded a Kd (HLA-B*08:01; [10]) of 17.3 nM.
SAVFKDSFL was tested, and the Kd (HLA-A*02:02; [11]) was 231 nM, the Kd (HLA-A*02:03; [11]) was 536 nM and the Kd (HLA-A*02:06; [11]) was 1140 nM.
EMAEALKGM was tested, and the Kd (HLA-A*26:01) was 8320 nM.
Sequence IQQLPETYF has a Kd (HLA-A*02:01 [4]; source organism: SARS-CoV1) of 16800 nM, a Kd (HLA-A*11:01 [5]; source organism: SARS-CoV1) of at least 51000 nM and a Kd (HLA-B*15:01; source organism: SARS-CoV1) of 188 nM. The Kd (HLA-B*58:01; source organism: SARS-CoV1) was at least 23400 nM.
For IMDASSFTL, the Kd (HLA-A*01:01 [8]) was 5700 nM, the Kd (HLA-A*02:01 [4]; [21]) was 30.8 nM and the Kd (HLA-A*69:01) was 997 nM. It also gave a Kd (HLA-B*15:01; [21]) of 138 nM, a Kd (HLA-B*40:01; [21]) of 432 nM and a Kd (HLA-B*58:01; [21]) of 49.5 nM.
In the case of KVSSKHQLV, the Kd (HLA-A*30:01; [11]) is reported as 14 nM.
Work on LTQVKELGIA yielded a Kd (HLA-A*02:02; [11]) of 11800 nM, a Kd (HLA-A*02:03; [11]) of 150 nM and a Kd (HLA-A*02:06; [11]) of 18.1 nM.
